One protein from article PMC2914802 can be followed below.

What all share (experiment): steady-state hydrolysis kinetics
What all share (assay type): biochemical, Burkholderia lata
Common to all, as to details: Zn2+; pH 8.0

Substrate in data set [1]: CC(=O)N1CCC[C@H]1C(=O)O
Substrate in data set [2]: CCCC(=O)N1CCC[C@H]1C(=O)O
Substrate in data set [3]: CCC(=O)N1CCC[C@H]1C(=O)O

B1: Sgx9260c (Burkholderia lata) (protein)
chain: MTITVLQGGNVLDLERGVLLDHHHVVIDGDRIVEVTDRPVDFPNAQVIDVRGKTVMPGFIDCHVHVLASNANLGANATQPNILAAIRSLPILDAMLSRGFTSVRDAGGADWSLMQAVETGLVSGPRIFPSGKALSQTGGHGDFRPRGDLLEPCSCCFRTGAIARVVDGVEGVRLAVREEIQKGATQIKIMASGGVASPTDPIANTQYSEDEIRAIVDEAEAANTYVMAHAYTGRAIARAVRCGVRTIEHGNLVDEAAAKLMHEHGAFVVPTLVTYDALAKHGAEFGMPPESVAKVASVQQKGRESLEIYANAGVKMGFGSDLLGEMHEFQSGEFRIRAEVLGNLEALRSATTVAAEIVNMQGQLGVVAAGAIADLVVLDGNPLEDIGVVAGQGERVEYVLQRGRIVKAREFRRTMARE
In the case of B1, in data set [1], the Michaelis constant (Km) – broadly, the concentration of substrate that gives half-maximal velocity – was determined as 800 ± 100 µM; the kcat (as a rule, the number of substrate molecules converted per active site and unit of time at saturation) worked out at 227 ± 9 s⁻¹; the kcat/Km (as a rule, the turnover number divided by the Michaelis constant) was 280000 M⁻¹ s⁻¹. Besides, in data set [2], the Km was determined as 2600 ± 300 µM, the kcat was 146 ± 6 s⁻¹ and the kcat/Km is 56000 M⁻¹ s⁻¹. Also, in data set [3], the Km was determined as 1900 ± 200 µM, the kcat stood at 141 ± 6 s⁻¹ and the kcat/Km was found to be 74000 M⁻¹ s⁻¹.
